The text below walks through data of patent publication US20100292083A1 (Ablynx, published 2010).

To fix the notation:
T1: human IL6R (human, UniProt P08887 20-358, limits assumed)
T1 construct: Antigen of the Biacore experiments
T1 sequence (looked up): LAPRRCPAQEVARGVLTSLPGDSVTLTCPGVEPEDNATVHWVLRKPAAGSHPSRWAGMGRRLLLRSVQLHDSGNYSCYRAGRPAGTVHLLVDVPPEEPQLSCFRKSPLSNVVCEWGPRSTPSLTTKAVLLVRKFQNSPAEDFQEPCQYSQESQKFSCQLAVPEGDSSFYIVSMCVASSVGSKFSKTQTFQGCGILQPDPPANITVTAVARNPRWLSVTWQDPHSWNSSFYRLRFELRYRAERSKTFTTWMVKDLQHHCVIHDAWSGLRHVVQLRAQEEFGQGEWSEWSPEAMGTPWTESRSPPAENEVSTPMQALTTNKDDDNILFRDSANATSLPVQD

B1: IL6R65PMP10A11 (VHH)
VHH: EVQLVESGGGLVQPGGSLRLSCAASGSIFKVNAMGWYRQAPGKGRELVAGIISGGSTNYADSVKGRFTISRDNAKNTLYLQMNSLRPEDTAVYYCAFIASNSEYDLGRRFWGQGTLVTVSS
notes: CDR3 library clone
B2: IL6R65PMP11C7 (VHH)
VHH: EVQLVESGGGLVQPGGSLRLSCAASGTIFKVNIMAWYRQAPGKGRELVAAIITSGTTTYADSVKGRFTISRDNAKNTLYLQMNSLRPEDTAVYYCAFVTTNSDYDLGRDYWGQGTLVTVSS
B3: IL6R65PMP11C4 (VHH)
VHH: EVQLVESGGGLVQPGGSLRLSCAASGTIFKINVMAWYRQAPGKGRELVAGIITNGSTTYADSVKGRFTISRDNAKNTLYLQMNSLRPEDTAVYYCAFVTTNSDYDLGRDYWGQGTLVTVSS
B4: IL6R65PMP12C8 (VHH)
VHH: EVQLVESGGGLVQPGGSLRLSCAASGTVFKINAMAWYRQAPGKGRELVAGLVSAGTANYADSVKGRFTISRDNAKNTLYLQMNSLRPEDTAVYYCAFVTTNSDYDLGRDYWGQGTLVTVSS
B5: IL6R65PMP12E1 (VHH)
VHH: EVQLVESGGGLVQPGGSLRLSCAANGSVYKVNAMAWYRQAPGKGRELVAGIVTGGTSNYADSVKGRFTISRDNAKNTLYLQMNSLRPEDTAVYYCAFVTTNSDYDLGRDYWGQGTLVTVSS
B6: IL6R65PMP11H10 (VHH)
VHH: EVQLVESGGGLVQPGGSLRLTCAASGTTFKVNVMAWYRQAPGKGRELVAAVINGGTTSYADSVKGRFTISRDNAKNTLYLQMNSLRPEDTAVYYCAFVTTNSDYDLGRDYWGQGTLVTVSS
B7: IL6R65PMP11F3 (VHH)
VHH: EVQLVESGGGLVQPGGSLRLSCAASGTIFRINVMAWYRQAPGKGRELVAAIISGGSTTYADSVKGRFTISRDNAKNTLYLQMNSLRPEDTAVYYCAFVTTNSDYDLGRDYWGQGTLVTVSS
B8: IL6R65PMP11G11 (VHH)
VHH: EVQLVESGGGLVQPGGSLRLSCAASGTTFKINVMAWYRQAPGKGRELVAAIITSGTTSYADSVKGRFTISRDNAKNTLYLQMNSLRPEDTAVYYCAFVTTNSDYDLGRDYWGQGTLVTVSS
B9: IL6R65PMP11F10 (VHH)
VHH: EVQLVESGGGLVQPGGSLRLSCAASGTTFKLNIMAWYRQAPGKGRELVAAVINGGTTTYADSVKGRFTISRDNAKNTLYLQMNSLRPEDTAVYYCAFVTTNSDYDLGRDYWGQGTLVTVSS
B10: IL6R65PMP11G7 (VHH)
VHH: EVQLVESGGGLVQPGGSLRLSCAASGTIFKLNVMAWYRQAPGKGRELVAAIITGGTTTYADSVKGRFTISRDNAKNTLYLQMNSLRPEDTAVYYCAFVTTNSDYDLGRDYWGQGTLVTVSS
B11: IL6R65PMP11F1 (VHH)
VHH: EVQLVESGGGLVQPGGTLRLSCAASGSTFKINVMAWYRQAPGKGRELVAGVITNGSTTYADSVKGRFTISRDNAKNTLYLQMNSLRPEDTAVYYCAFVTTNSDYDLGRDYWGQGTLVTVSS
B12: IL6R65PMP11E4 (VHH)
VHH: EVQLVESGGGLVQPGGSLRLTCAASGTIFKVNVMAWYRQAPGKGRELVAAIITGGSTSYADSVKGRFTISRDNAKNTLYLQMNSLRPEDTAVYYCAFVTTNSDYDLGRDYWGQGTLVTVSS
B13: IL6R65PMP11E5 (VHH)
VHH: EVQLVESGGGLVQPGGSLRLSCAASGSTFRINIMAWYRQAPGKGRELVAGVITSGNTTYADSVKGRFTISRDNAKNTLYLQMNSLRPEDTAVYYCAFVTTNSDYDLGRDYWGQGTLVTVSS
B14: IL6R65PMP11B4 (VHH)
VHH: EVQLVESGGGLVQPGGSLRLSCAASGSIFKINVMAWYRQAPGKGRELVAAIINGGTTSYADSVKGRFTISRDNAKNTLYLQMNSLRPEDTAVYYCAFVTTNSDYDLGRDYWGQGTLVTVSS
B15: IL6R65PMP11G10 (VHH)
VHH: EVQLVESGGGLVQPGGSLRLSCAASGSTFRINVMAWYRQAPGKGRELVAGIITNGTTTYADSVKGRFTISRDNAKNTLYLQMNSLRPEDTAVYYCAFVTTNSDYDLGRDYWGQGTLVTVSS
B16: IL6R65PMP11D11 (VHH)
VHH: EVQLVESGGGLVQPGGSLRLSCAASGSTFKINIMAWYRQAPGKGRELVAGVITGGNTNYADSVKGRFTISRDNAKNTLYLQMNSLRPEDTAVYYCAFVTTNSDYDLGRDYWGQGTLVTVSS
B17: IL6R65PMP11D6 (VHH)
VHH: EVQLVESGGGLVQPGGSLRLSCAASGTTFKINVMAWYRQAPGKGRELVAAIISGGSTPYADSVKGRFTISRDNAKNTLYLQMNSLRPEDTAVYYCAFVTTNSDYDLGRDYWGQGTLVTVSS
B18: IL6R65PMP11D12 (VHH)
VHH: EVQLVESGGGLVQPGGSLRLSCAASGTIFKINIMAWYRQAPGKGRELVAAIINSGSTSYADSVKGRFTISRDNAKNTLYLQMNSLRPEDTAVYYCAFVTTNSDYDLGRDYWGQGTLVTVSS
B19: IL6R65PMP11E11 (VHH)
VHH: EVQLVESGGGLVQPGGSLRLSCAASGTTFKINVMAWYRQAPGKGRKLVAAIINNGNTTYADSVKGRFTISRDNAKNTLYLQMNSLRPEDTAVYYCAFVTTNSDYDLGRDYWGQGTLVTVSS
B20: IL6R65PMP11H2 (VHH)
VHH: EVQLVESGGGLVQPGGSLRLSCAASGSIFKINVMAWYRQAPGKGRELVAAIINGGTTSYADSVKGRFTISRDNAKNTLYLQMNSLRPEDTAVYYCAFVTTNSDYDLGRDYWGQGTLVTVSS
B21: IL6R65PMP11D4 (VHH)
VHH: EVQLVESGGGLVQPGGSLRLSCAASGTTFKINIMAWYRQAPGKGRELVAGVINSGTTNYADSVKGRFTISRDNAKNTLYLQMNSLRPEDTAVYYCAFVTTNSDYDLGRDYWGQGTLVTVSS
B22: IL6R65PMP11D3 (VHH)
VHH: EVQLVESGGGLVQPGGSLRLSCAASGSIFKLNVMAWYRQAPGKGRELVAGVITGGNTSYADSVKGRFTISRDNAKNTLYLQMNSLRPEDTAVYYCAFVTTNSDYDLGRDYWGQGTLVTVSS
B23: IL6R65PMP11E2 (VHH)
VHH: EVQLVESGGGLVQPGGSLRLSCAASGTTFKVNIMAWYRQAPGKGRELVAAIITGGSTSYADSVKGRFTISRDNAKNTLYLQMNSLRPEDTAVYYCAFVTTNSDYDLGRDYWGQGTLVTVSS
B24: IL6R65PMP12C7 (VHH)
VHH: EVQLVESGGGLVQPGGSLRLSCAASGSVYRINAMGWYRQAPGKGRELVAGLISAGSTNYADSVKGRFTISRDNAKNTLYLQMNSLRPEDTAVYYCAFVTTNSDYDLGRDYWGQGTLVTVSS
B25: IL6R65PMP11H4 (VHH)
VHH: EVQLVESGGGLVQPGGSLRLSCAASGSTFRLNVMAWYRQAPGKGRELVAAIITNGTTTYADSVKGRFTISRDNAKNTLYLQMNSLRPEDTAVYYCAFVTTNSDYDLGRDYWGQGTLVTVSS
B26: IL6R65PMP11F12 (VHH)
VHH: EVQLVESGGGLVQPGGSLRLSCAASGTTFRVNVMAWYRQAPGKGRELVAAIISGGSTTYADSVKGRFTISRDNAKNTLYLQMNSLRPEDTAVYYCAFVTTNSDYDLGRDYWGQGTLVTVSS
B27: IL6R65PMP11A12 (VHH)
VHH: EVQLVESGGGLVQPGGSLRLSCAASGTIFRVNVMAWYRQAPGKGRELVAGIITNGSTSYADSVKGRFTISRDNAKNTLYLQMNSLRPEDTAVYYCAFVTTNSDYDLGRDYWGQGTLVTVSS
B28: IL6R65PMP13A2 (VHH)
VHH: EVQLVESGGGLVQPGGSLRLSCAASGTIFRVNVMAWYRQAPGKGRELVAAIITDGTTTYADSVKGRFTISRDNAKNTLYLQMNSLRPEDTAVYYCAFVTTNSDYDLGRDYWGQGTLVTVSS
B29: IL6R65PMP13A4 (VHH)
VHH: EVQLVESGGGLVQPGGSLRLSCAASGTTFRLNVMAWYRQAPGKGRELVAAIITSGTTTYADSVKGRFTISRDNAKNTLYLQMNSLRPEDTAVYYCAFVTTNSDYDLGRDYWGQGTLVTVSS
B30: IL6R65PMP11E9 (VHH)
VHH: EVQLVESGGGLVQPGGSLRLSCAASGTTFKINVMAWYRQAPGKGRELVAAIITGGTTTYADSVKGRFTISRDNAKNTLYLQMNSLRPEDTAVYYCAFVTTNSDYDLGRDYWGQGTLVTVSS

The target of the assay is T1, human IL6R. Nature of the assay: SPR (Biacore), periplasmic extract. As to the method:
Selection outputs were analyzed by picking individual colonies and growing them overnight in 1 ml 2×YT (Yeast Tryptone) medium+100 ug/ml Carbenicillin at 37 C. Nanobody containing periplasmic extracts were prepared, diluted 1/10 in PBS and subsequently tested for antigen binding in ELISA. Clones with the highest ELISA signals were sequenced and analyzed on Biacore. […] The off-rate of the best clone from the CDR3 library was 7×10e-4 s-1.
For orientation: koff means the first-order rate constant of dissociation. High values mean a short-lived complex, low ones a long-lived complex. As to B1, the koff is 0.001 s⁻¹.

For the molecule B2, the koff was 0.00085 s⁻¹.

B3 registered a koff of 0.00031 s⁻¹.

B4 displayed a koff of 0.00066 s⁻¹.

B5 displayed a koff of 0.00026 s⁻¹.

B6 yielded a koff of 0.00043 s⁻¹.

With B7, the koff worked out at 0.00048 s⁻¹.

B8 registered a koff of 0.0005 s⁻¹.

For the molecule B9, the koff was 0.0013 s⁻¹.

B10 showed a koff of 0.00036 s⁻¹.

Regarding B11, the koff is 0.00037 s⁻¹.

As to B12, the off-rate (koff) came out at 0.00023 s⁻¹.

B13 had a koff of 0.00048 s⁻¹.

As for B14, the koff came out at 0.00028 s⁻¹.

Take B15: the koff is 0.00021 s⁻¹.

The molecule B16 showed a koff of 0.00039 s⁻¹.

B17: the koff was determined as 0.00068 s⁻¹.

As to B18, the koff is 0.00058 s⁻¹.

For B19, the koff amounted to 0.00049 s⁻¹.

Consider B20, for which the koff worked out at 0.0003 s⁻¹.

B21 had a koff of 0.001 s⁻¹.

The molecule B22 gave a koff of 0.00031 s⁻¹.

On to B23, for which the koff was found to be 0.00068 s⁻¹.

The molecule B24 showed a dissociation rate constant (koff) of 0.00091 s⁻¹.

Molecule B25 showed a koff of 0.0008 s⁻¹.

The molecule B26 returned a koff of 0.00067 s⁻¹.

B27 showed a koff of 0.00012 s⁻¹.

Take B28: the koff was 0.00061 s⁻¹.

B29 came in with a koff of 0.00072 s⁻¹.

B30 showed a koff of 0.00035 s⁻¹.
